Source: the RNAGym collection of RNA variant scans (doi:10.1073/pnas.2313332121)

B1: TPR t1 (parent)
chain: GACCAAUCUGCCCUCAGAGCUCGAGAACAUCUUCGGAUGCAGAGGAGGCAGGCUUCGGUGGCGCGAUAGCGCCAACGUCCUCAACCUCCAAUGCAUCCCACCACAUGAUGAUGCCUGAAGAGCCUUGGUUUUUUG

Variants of: B1
Assay: polymerase ribozyme fitness, log enrichment relative to wild type (log ratio); higher = more active; in vitro selection for triplet polymerase activity
Method in brief: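 Mutant libraries of both subunits of a heterodimeric triplet polymerase ribozyme were PCR-built, transcribed, and selected once in triplicate, with frozen incubation at −7 °C and capture of gel-excised extended constructs on streptavidin beads before RT-PCR. Illumina sequencing of input and output libraries was filtered to genotypes with ≥10 input reads and ≥1 read per output. Fitness is the logarithm of genotype enrichment over wild-type enrichment, using inverse-variance-weighted replicate averages. The logarithm is base 2.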

Variant | polymerase ribozyme fitness (log ratio)
C3A U78C U87C C102U C124G U131A | -0.482
C3U C11A | -1.47
C3U A27G G42U C72U C82U C104U | -3.31
C3A U7A G57U G60C A83U A121C | -1.26
C3U C62G U106A G113A | -4.93
C3G A83C | -2.39
C3G U109G | -5.75
A2C C72U G120U | -2.42
A2C C124A | 0.652
A2C C49G G63C A74U A75U C124A | -3.35
A2G G51A | -2.94
C3G G36U C72G C86A C99G U112G U129C U134G | -5.02
C3U C72G | -0.854
C3U C8A C79U A121C | 1.18
A2U C72A A83U C123G U126A | -0.343
A2G U9C G69C | -0.585
A2C C62U A75U G110A | -4.14
C3U G36U G63U C88U A111U C124U | -6.17
A2U G69A | -4.39
A2U G69U | -1.7
C3U C4A U14G U32G A37G A46C C49A C53U C114G U116C | -5.66
C3G U106C C123G | -1.58
C3A A6C A91U U125A | -3.02
C3U C12A A75U U87C C124U | 0.0602

Variant | polymerase ribozyme fitness (log ratio)
A2G C56G | -1.69
A2G C56U | 0.13
A2U A37U C72A U78A C124G | -0.247
C3U C12A | -0.942
C3A G52U | -1.75
A2C G117U U129A | -4.64
A2C C62U | -2.03
A2C U116A | -4.2
C3G C8G G10A A18U A41G G69C A121G | -4.57
C3U C56A G69A C72A C101U U112A C123G | -5.58
A2C C20A C79U G122U U125G | -3.43
A2C C56U | -0.967
C3U C70A | -1.81
C3A C99U | -3.8
C3U A43C U87G | -3
A2U U87G | -2.24
C3A G61A C79U | -1.27
A2C C31G C79U G117U U126A | -4.9
A2C C13U G110A | -2.59
A2U U21G C53U G58C C72U U129A | -1.46
A2U C40G C53G C72G | -2.9
C3U C56G G58U G113U | -4.35
C3A C85A | -3.94
C3A C85U | -2.76

Variant | polymerase ribozyme fitness (log ratio)
A2U C34A G60A G120U U125A U132A | -3.85
C3U A18U C82A G120C | -1.8
A2G C11G U38G C82G | -4.28
A2U C11U A27U G48U C64A C99G G113C | -6.93
C3U C34G C123U | -4.64
A2C C72A | -2.14
C3A U9A G52U C88G A91C G127U | -1.59
A2G C8U A83G | -0.602
C3A G36A G44C C72A U130A | -4.85
A2G C104U | 0.0974
C3A C12U G42A G44C C79U C88A A118G G120A | -1.44
C3G U112A | -0.0942
A2U C70G | -5.04
C3U C13G A90U A121C C124A | -0.103
A2C C115U | -2.66
C3U C20G | -3.47
A2U C12A A43U G120A | -1.89
A2U C3G C123G | -0.606
A2G G77A C102A C123G G128C | -3.09
C3A G45U C72G U87C | -3.73
C3G C13U G45U G48A | -2.41
A2G G110A | -1.38
A2U A5C G63C | -3.31
A2U C104U | -1.41

Variant | polymerase ribozyme fitness (log ratio)
C3A C115A | -1.99
A2U U14A G69U C82U A119C G120U | -2.15
C3U C8G A29G | -1.43
A2G C73G C85A G113A G120C | -3.08
A2G C72U C88U C124A | 1.45
C3A G17U A18C A24U U32G C40G G42U A43G U109C | -6.6
C3G A5U C11U C73U C89G C123U | -1.08
A2U G61C | -3.94
C3A U92A C114U | -4.76
C3U C73U | -0.279
A2U A5U A27G C53G U87G | -4.56
C3U C11A C15A A121U | 0.659
C3A G47A C72A A100C | -2.89
A2U G19U G25U A26G A27U | -6.04
A2G C99U C101A A121G C124G | -2.5
C3U C56A A68G G120C | -3.32
A2U C64U C115G C124U | -4.43
C3U C62G G113A C114G A121U | -4.51
A2U G57U G117U | -5.98
A2U G52C | -3.28
A2C G44A U59A U96A U112A U129A | -2.9
A2U C3G C4U C72U G77A U92G A118U C123G G128A | -3.1
C3U C4A G51C C53A G71U A103G C114U | -5.71
A2C G45A G57A C114U C124U G127C | -5.9

Variant | polymerase ribozyme fitness (log ratio)
C3A A74U G120U U125A | -0.657
A2U C11G G120A U132A | 0.742
A2U G45A C62U C115U U133A | -2.99
A2U G17A | -5.45
A2U C64U C89G | -5.12
A2U A37U G48A C53U G60A C85A | -3.47
C3U A26U C49U A118U | -3.26
C3G C64U G69A | -2.41
C3U C11G G63C C86U U109G U131A | -5.05
A2U C3G G63A | -3.64
A2U C15A A16C G17A C72A C85G A118U C124G | -2.91
C3G G93A | -2.07
A2U C8U C11G C72A | -0.286
C3A U116C | -2.44
A2C C123A | -0.696
C3A C20G A119U A121U U132C | -3.91
C3A A43U | -2.69
C3U C115U | -1.53
A2G U14A C62A | -3.69
A2U G120C | -1.67
A2U G120U | -1.32
C3A G48U G71C C101A G127A | -3.71
C3U C12G C72U | -0.647
C3U G17A G36C C49A A50U G58C G60A C88U G117U | -6.3

Variant | polymerase ribozyme fitness (log ratio)
C3U C13U | -0.225
A2U A41C C114U U133G | -5.64
A2U C20U G63C C89A A111C C123A | -4.79
C3A G39U C114A U125G | -3.98
C3U C82G | -0.798
C3U A37C C53G U55C | -1.11
C3A C8A C11G C22A G45U C88G | -5.16
A2G G47C U81G | -3.47
C3A C13G C28A G51U G71C G110U | -6.35
C3U C79A G117A | -4
A2G U87A U112A | 1.3
A2U A37C G44A C53A G63C C124A | -3.55
A2U C8A G19U A24U A26U U33C A108G A111C A121G | -7.47
C3U C86U A95U U125G U126G | -3.14
A2U C64U A83G A111C | -4.94
A2C U78C | -1.64
A2U C89G | -5.02
A2C C15A G25A G71U C80U G120C G135C | -4.64
A2C G63U C115U | -4.82
A2U C12A C49U | -3.6
A2U G63U | -4.25
A2U A5G C12U G61A U112G | -2.18
A2U A50G G71U A118G | -2.92
C3G G39C C53G G113U | -5.93

Variant | polymerase ribozyme fitness (log ratio)
C3A U55G | -1.43
A2G G39U C115A | -1.93
C3U C22G C56U G117C | -4.66
C3G C12G G120A G128U | 0.37
A2U A43U | -3.48
A2U G10U A18G U33G G60A C124A | -6.77
C3A U81G C115U | -6.22
C3A G71U C115G A118U | -4.97
A2U A5G C12U U112G | -1.79
C3G C20U A46G C124U | -2.93
A2C G57C C72A C101A G135U | -3.06
A2U A46G C73U U81C | -3.83
C3A C49G A75U U125A | -2.69
A2U A16U U32A A41C G69U C89A | -7.42
A2U C13U C85G U131G | -3.98
C3A C89U | -1.82
A2G G60A | -0.122
C3U C49A G120A | -0.42
C3A C4A G51A G60A A84G G120U | -3.02
C3U C34A C76U G120C | -3.72
C3G C70G C80U G128C | -1.99
C3A G48U U125A | -2.7
C3A A29U G63A C82A A91C C114U G128U | -3.24
